# Experiment: soluble on expression in E. coli; label from the status in PepcDB or PDB records
row,Sequence,soluble on expression in E. coli
1,MGSDKIHHHHHHMTESSDYESVQVFIGVDVGKDTHHAVAINRSGKRLFDKALPNDENKLRSLISDLKQHGQILLVVDQPATIGALPVAVARSEGVLVGYLPGLAMRRIADLHAGEAKTDARDAAIIAEAARTLPHALRTLKLADEQIAELSMLCGFDDDLAAQTTQASNRILGLLTQIHPAPERVLGPRLEHPAVLDLLQRYPSPEKLASLGEKKLAAQLCKLAPRLGKRLAADIAQALAEQTVVVPGTNAAAVVLPRLALQLITLRKQRDEVALEVEQRVLAHPLYPVLTSMPGVGVRTAARLLTEVACRAFASAAHLAAYAGLAPVTRRSGSSIRGEHPSRRGNKALKRALFLSAFTALRDPLSRAYYTRKMSQGKRHNQVLIALARRRCDVLFAMMRDGTFYTPQGS,not soluble
2,MGSDKIHHHHHHMTGEKVHLTGAKETLLMTLYGKALESRLPHSLLGDHFADEAVRKIDYDFSRLKVDENLGIGLAIRAKTLDVRVEDFLARNPGAIVLHLGCGLDTRVFRVDPPPGVDWFDADYPQVIELRRKLYPPRDHYHLIASSVTEPGWLAEVPRNRPAMVVAEGLTPYLPADEGLRLVSRLVSHLAGGELMFDAYSRFGLTLLRLSPTIKATGAEVHWAIDDPHELELAVPKLRFVEDISAYMPEHAARMGWSAKLFVRLWKHIPALRKVGRLLRYRF,not soluble
3,MGSDKIHHHHHHMTGRRIAIAIDSLAGGGAEKVMLTLASTLVELGHEPHLLVLQQDCHHEIPPGLQVHFCFGGDERNIDGFWRTRGSVQKLQQWITGLEERFGKFELFLSNLDKTNLLMTRTGVAPLYCVVHNSIEEELQRQRKLGPFAYLSMLRAKKSLNGQHLITVSKGIANEIAEVGRVQPASVQTIYNPFELEKIQHQASQTADALPKGDYIIHVGRFARQKRHDVLFAALKQMRNPLPLVLLCNNKKKAIKSARKFGVEDRVIIPGFQTNPYPWIKGARLLALSSDYEGLPTVLIESLAVGTPVVSTDCRHGPKEILTGALRRFLVPRRDPAALAMAMDEALTHYPDCDDAEILTQVGAAAVAGKYLKLLTA,not soluble
4,MGSDKIHHHHHHMTHEEHHAAKTLGIGKAIAVLTSGGDAQGMNAAVRAVVRVGIFTGARVFFVHEGYQGLVDGGDHIKEATWESVSMMLQLGGTVIGSARCKDFREREGRLRAAYNLVKRGITNLCVIGGDGSLTGADTFRSEWSDLLSDLQKAGKITDEEATKSSYLNIVGLVGSIDNDFCGTDMTIGTDSALHRIMEIVDAITTTAQSHQRTFVLEVMGRHCGYLALVTSLSCGADWVFIPECPPDDDWEEHLCRRLSETRTRGSRLNIIIVAEGAIDKNGKPITSEDIKNLVVKRLGYDTRVTVLGHVQRGGTPSAFDRILGSRMGVEAVMALLEGTPDTPACVVSLSGNQAVRLPLMECVQVTKDVTKAMDEKKFDEALKLRGRSFMNNWEVYKLLAHVRPPVSKSGSHTVAVMNVGAPAAGMNAAVRSTVRIGLIQGNRVLVVHDGFEGLAKGQIEEAGWSYVGGWTGQGGSKLGTKRTLPKKSFEQISANITKFNIQGLVIIGGFEAYTGGLELMEGRKQFDELCIPFVVIPATVSNNVPGSDFSVGADTALNTICTTCDRIKQSAAGTKRRVFIIETMGGYCGYLATMAGLAAGADAAYIFEEPFTIRDLQANVEHLVQKMKTTVKRGLVLRNEKCNENYTTDFIFNLYSEEGKGIFDSRKNVLGHMQQGGSPTPFDRNFATKMGAKAMNWMSGKIKESYRNGRIFANTPDSGCVLGMRKRALVFQPVAELKDQTDFEHRIPKEQWWLKLRPILKILAKYEIDLDTSDHAHLEHITRKRSGEAAV,not soluble
5,MGSDKIHHHHHHMTIDPIKSTTLAQFDAAEQTALAQLALKVQHAFVTGAGGFLGKAICLRLLAAGIKVTGFARGHYPELEALGVVMLQGDLVNKDQLQQAMQGCDIVFHVASKAGVWGDRDSYFCPNVKGAANVIAACKTLKINKLVYTSTPSVTFAGQDESGIDESTPYATSFLNYYAHSKAIAEKMMLDANQVGDVSVENTAVTQVTQVTQATTATISDNNLATTQVAIPNTSQVTAPYALKTVALRPHLIWGPGDPHLVPRVLARCRLDKLKLVGHEDKLVDTIYIDNAAYAHVLAALELCQAKPKCQGKAYFLSNDEPITMAKMLNLILACDALPPVTKRVPQSVAYVAGAVLETVYFLLKKQEEPMMTRFVARQLSCSHYFDISAAKRDLGYRALVSINEGMARLKASL,not soluble
6,MGSDKIHHHHHHMTIGLSCNALKYGGGLERYAIDLARGLADAGVRPLVFARSFDSSVPEYQCVEPRRINVSFLPGKCRDAWFSWRLRAARRAAPVDVLIGCNRVDSSDIAICGGTHLGFLDAIGRMPTFSDRRQIALERRQYARARFVVAHSMLMRDELRRFYGLSDDKIRVLFPPVDAARFTPVDAVRRAELRTRFGFADDEVVLLFPSSSHERKGLPLIEAILRDAGPRVVVAVAGRPPERTSERLRYVGYVKDIEDGYRAADFTILASKYEPFGLVGVESVMCGTPVILPSNIGCCDAIAPSAKLVFAPGDAAGLRGMLDEAVRRVRAGAVRVESGAAARAAIQYDPSVARHVAQLLDLAAEAASDRRNGGR,not soluble
7,MGSDKIHHHHHHMTIMSIGIIIASHGEFAAGIHQSGSMIFGEQEKVQVVTFMPNEGPDDLYAKFNNAVAAFDAEDEVLVLADLWSGSPFNQASRVMGENPERKFAIITGLNLPMLIQAYTERLMDAAAGVEKVAANIIKEAKDGIKALPEELNPVEEVASAAAAPVAQTAIPEGTVIGDGKLKINLARLDTRLLHGQVATAWTPDSKANRIIVASDNVAKDDLRKELIKQAAPGNVKANVVPIQKLIEISKDPRFGETHALILFETPQDALRAIEGGVPIKTLNVGSMAHSTGKTLVNTVLSMDKEDVATFEKMRDLGVEFDVRKVPNDSKKDLFDLINKANVK,not soluble
8,MGSDKIHHHHHHMTKDQQNIERGSVINVEILNAAHGGQGIAKYDGRVIFVKGAFPGDRLSANITHVKKKFARATIASIEMPSPLRMQQRCLAAANGAGCCDFGEFDPEIEGRYKADLVLEQLERLGKVSQPPTCEVVSFGSPTQWRTRMRLGVDAQGRAGGFASQSREVVSGVPCSQGVMGLLDGIVGAEQNVLRFTPGSQVVVVCDDLGQRTVVETQPAPRGKRTESMVKVVEGTGKVSQVVDGVTFELPATGFWQSHKDAAQAYADTIREWFGSLIIRNTDSSLVAWDLYGGCGSFASAILSAVDNHGVVHCVESAPAAVSAGKRALSQLVEDQKIVFHTETVERAMNQLPAPTLVVLDPPRVGAGAETVRAIAQSGPQAAIHIGCDPATFARDIAEWSRNGFILEKLRVFDAFPGTHHCETIGLLTKKN,not soluble
9,MGSDKIHHHHHHMTKILIVLSEWGYWGEELVGPLETFDAAGYQVDFATPNGKRPVALGVSMDPTFVDPPLGRPVTTQDMADKVRQLDDTNNPRLNNPKNLREWLPERPYWSSPKFLREMEEYYRLLDEVRQRDLQTYDAILIVGGSGPMVDLADNQRVHDLILSFYQMGKPVAAECYGVACLAFARDIGDRKSIIWGKHVTGHCLEYDYKDGTGFNGTNIDPCLNNINFGTPFYPLEYILRDATGPDGQYHGNVGRPTSVIVDYPFITGRSTPDSYLTGQKLVEVLEKGLKRYGW,not soluble
10,MGSDKIHHHHHHMTKITVLSGKGGTGKTTVSVNMAKALSESYRVQLLDADVEEPNDHIFFNVDVSFEEPVHLMIPVVDNSVCIRCGECASTCQFGAISVFPSGTFVFESLCHGCGACSIMCPVNAISERPKEIGKIRFGTADGNISFGMGILNIGERTGVPVIRKLKKHIDEKADVVIVDAPPGTSCPVVESLRNTDFALLVTEPTAFGLHDLKLAVELTKEMGIPSGIVVNRYIPGNTIIEEFADEEGIPVLLKIPFKREIASLCAEGKLIVEAFQDMKKDFLELFEKIEVMVR,not soluble
11,MGSDKIHHHHHHMTKKRIFVTGASGCIGHYISETLIQETDYELYLLVRNPSKLQVDTQIRPGITVLQGDMQNISQFADLLSTIDIAVLTATAWGGEQTFDINVSKTIELLNLLDPDRCQQVIYFSTASVLDSHNQPLKEAGEIGTDYIRSKYECLHKISELGIASKITTVFPTLVLGGDSKKPYSHLTSGIPEVTKYVNLIRFLQADGSFHFIHGKDIASVVKYLIVNPPQENTSRRLVLGQKRLTANQAIEEVCTYLGKKISFRIPLSLSLANLIIAVFRIQMADWDRFCMNYRHFTYDTVINPDSFGLPNYCATMSDVLKISGVDSSHQ,not soluble
12,MGSDKIHHHHHHMTKLQLKYRELKIISVIAASENISHAATVLGIAQANVSKYLADFESKVGLKVFDRTTRQLMLTPFGTALLPYINDMLDRNEQLNNFIADYKHEKRGRVTIYAPTGIITYLSKHVIDKIKDIGDITLSLKTCNLERNAFYEGVEFPDDCDVLISYAPPKDESLVASFITQYAVTAYASQRYLEKHPISRPDELEHHSCILIDSMMIDDANIWRFNVAGSKEVRDYRVKGNYVCDNTQSALELARNHLGIVFAPDKSVQSDLQDGTLVPCFQQPYEWWLDLVAIFRKREYQPWRVQYVLDEMLREIRHQLAQSQQLRPEQAAESED,not soluble
13,MGSDKIHHHHHHMTKNNIAVKVDHVSKYFKLPVESTQSLRTALVNRFKGIKGYKKQHVLRDIDFEVEKGDFFGIVGRNGSGKSTLLKIISQIYVPEQGKVTVDGKLVSFIELGVGFNPELTGRENVYMNGAMLGFTTEEVDTMYQDIVDFAELQDFMNQKLKNYSSGMQVRLAFSVAIKAQGDVLILDEVLAVGDEAFQRKCNDYFLERKNSGKTTILVTHDMAAVKKYCNKAVLIDDGLIKAIGEPFDVANQYSLDNTDQIVEDKQEEEAAVQEEEQIVVDNLEVKLLSANRMTPRDSIRFEISYNVLADVGTYIALSLTDVDRNIWIYNDNSLDYLSSGSGKKRVFYECHLKSLNDIKLKLEVTVRDKQGQMLAFSSATNTPIISINRDDLEGDDKSAMDSASGLIQRNGQWQFS,not soluble
14,MGSDKIHHHHHHMTLFLQKGYEETTMREIVHKSGRSKGAIYHHFSSKQEILNFQISLEMDNLRQCLDALISNNQLNAQQKFKGILTYFFENPSLTELTRLHWAEKLPFALLETLKNSLTVVAQYIEAIIQQEIKEKKLNCQYSKELSEILVLLFDIWLDPSIVDFDYQTACQRIDFIALLLEKFDLPLLDENDKNKLKNGLKHYDEKNTL,not soluble
15,MGSDKIHHHHHHMTLLDRFDGGFARDGEDIIAGSRIEDARIHNRRLVFETIFQRGPISRVEISAIVGLKPQTISSITRELLEQELIVEAGRSSGLRGQPQIYLEANAEAGFSIGVHLDQNQCHILVFDLKRQERARKSMRCDTANPDVTVRMLAQTITTLLHDNALPAERIWGLGLVLPTFGSDVYDFDFSMRHWEAWRDASFAEDLQRLTGFAVLVENDGTAAAIGERLHRHDAQEASFAYFYIGHGAGAGLIIDGYPFKGVGGNAGEIGLLPILGLGANPVWPDNPSSAVQGGVLSIGGLAAACGLSEQSMDEQSILSLLERRDHRLMDWLASAASVLRDVCAVIEVMFDPGFIAVGGALPRALVERLVDRAYPLRPTPSARRDRALPRLLPATLIEDAAVTGAAMLPIFVTTSHNFRHLYFRQILADDRS,not soluble
16,MGSDKIHHHHHHMTLRISQLAQKFGLSRSTLLYYEKQGLIRGRRLDNGYRVYSENDLQRLILIQKLQAGGLTLKECLACLDARIDKALLQTRLAELDADIAQKQASRTLLAALLGEGDLKAWHESLTKEAPEAHLDWLQTQGFSEKEALHLTWLSKDMNEHDKFMADFMQIFSPLTRWAPGSEADTLKALASVPLTPTRILDIGCGKGLATRMLAKHTKASITAIDNEEDALTELQQHLQHRNLASRVSTLCASMTDIPLPAASADLIWAEGSAYIMGVEQALKSWRKLLVDNGVLVLSDLVWLTDDKAPEAVAFWQQDYPAMTSVEARMAQMQAAGFEVIDSFSLSNEAWKSFTGPLAARVDEVSEQLAGSQALANVQRELGIFSRFLGQFGYQFFVLQKRG,not soluble
